Test results published in the DeepSol protein solubility set.

assay: soluble on expression in E. coli; label from the status in PepcDB or PDB records

Sequence | soluble on expression in E. coli
ASNIYKIKEENKNEDICFIAGIGDTNGYGWGIAKELSKRNVKIIFGIWPPVYNIFMKNYKNGKFDNDMIIDKDKKMNILDMLPFDASFDTANDIDEETKNNKRYNMLQNYTIEDVANLIHQKYGKINMLVHSLANAKEVQKDLLNTSRKGYLDALSKSSYSLISLCKYFVNIMKPQSSIISLTYHASQKVVPGYGGGMSSAKAALESDTRVLAYHLGRNYNIRINTISAGPLKSRAATAINKLNNTYENNTNQNKNRNSHDVHNIMNNSGEKEEKKNSASQNYTFIDYAIEYSEKYAPLRQKLLSTDIGSVASFLLSRESRAITGQTIYVDNGLNIMFLPDDIYRNENE | soluble
ASQKVEKTVIKNETGTISISQLNKNVWVHTELGSFNGEAVPSNGLVLNTSKGLVLVDSSWDDKLTKELIEMVEKKFQKRVTDVIITHAHASRIGGIKTLKERGIKAHSTALTAELAKKNGYEEPLGDLQTVTNLKFGNMKVETFYPGKGHTEDNIVVWLPQYNILVGGCLVKSTSAKDLGNVADAYVNEWSTSIENVLKRYRNINAVVPGHGEVGDKGLLLHTLDLLK | soluble
ASSPANKVYQDRFESMYSKIKDPANGYFSEQGIPYHSIETLMVEAPDYGHVTTSQAMSYYMWLEAMHGRFSGDFTGFDKSWSVTEQYLIPTEKDQPNTSMSRYDANKPATYAPEFQDPSKYPSPLDTSQPVGRDPINSQLTSAYGTSMLYGMHWILDVDNWYGFGARADGTSKPSYINTFQRGEQESTWETIPQPCWDEHKFGGQYGFLDLFTKDTGTPAKQFKYTNAPDADARAVQATYWADQWAKEQGKSVSTSVGKATKMGDYLRYSFFDKYFRKIGQPSQAGTGYDAAHYLLSWYYAWGGGIDSTWSWIIGSSHNHFGYQNPFAAWVLSTDANFKPKSSNGASDWAKSLDRQLEFYQWLQSAEGAIAGGATNSWNGRYEAVPSGTSTFYGMGYVENPVYADPGSNTWFGMQVWSMQRVAELYYKTGDARAKKLLDKWAKWINGEIKFNADGTFQIPSTIDWEGQPDTWNPTQGYTGNANLHVKVVNYGTDLGCASSLANTLTYYAAKSGDETSRQNAQKLLDAMWNNYSDSKGISTVEQRGDYHRFLDQEVFVPAGWTGKMPNGDVIKSGVKFIDIRSKYKQDPEWQTMVAALQAGQVPTQRLHRFWAQSEFAVANGVYAILFPD | soluble
ASTLGFKARIHMSHDATDWKINKLLQNGVEVKIYDDNFSNAVAAARVSSQRDPYSYFIDDEGSKLLFAGYATAGERVKKQLSKMQIEVSKEHPLVVYLPAGVGGSPSGVAFGLKLQFADAVIPIFVEPTHMPSVLLGMASGLNHDISVYDIGIDGKTAADGLAVGRPSMIAGKYMKDKLFGIATVSDSDMFAYQGMLKKLENIEVEPSAAVGIRGLIQSKEISEIPDSATHMVWATGGSMVPKNTMHKYEDKAVRIFNTWKS | not soluble
ASTRNLMIEGENLEVLKLLQKSYAGRAKLVYIDPPYNTGKDFVYSDNFTDSLRHYLELTGQTTDGKRISSHTDASGRFHTDWLNMIYPRLKLARDLLADDGVIAVHIDEHEQHALVLVMREIFGEDNELGVAVWDKRNPKGDARGIAYQHESIVLFARDAQLLFERAPLKRPKRNAQRMLDAARGAIAGAATIADANAAYRAWVKSQTTLSGGEAMYDRISADGRVYRLVSMAWPNKKKAPDDYFVPLVHPVTGKPCPVPERGWRNPPATMQALIDKGLVEFGADETTQPQRIYFLDENMYENVPSVLPFGGSDDALMKSLGIPFDQPKPVEFAASIIGWCTDGDDLIVDFFGGSGTTGHAVMALNAADGGNRRYVLVQLPEPLDAGSKDQKAAADFCAAQRVPLNLAELTKERLRRAAARVAAEHPGTR | soluble
ASYWSLQDILLRQGYRENLHPDDLIEGYRELLADSVHRCLQSDVEVGLFLSGGIDSAAVAHFAAEKQDLHTFTVLSQSTFTNEDAKYAHWLAKDLHLPNHQVLYQLGNDELLQPESYKHLLWICETPFCGPEQLYKFHLHKYAKAIRPNLKVMLTGQGSDEFNGGYSTTLSPAENPSWEGFIESVNTMEMNRLHRLQGNIFRVWEEHFGLSPINLSYLKSNDSSQADPWQSYVLTKYRDLQMYNCWHEDRIAAANHIENRVPFLDHRLVEWVCGIPDGLRKDLLWDKSVLRKSLTNELHTSYTHRPKVPFFYGKDVRYTHKMMFHLLKKNNYQLIEEAFSHSDASSIIQVEHIHAIM | not soluble
ATGDTAATAAPAKAEKTAGSVLRDAKRVIIVPGYGMALAQAQHQVRQLADKLTANGTEVRYAIHPVAGRMPGHMNVLLCEADVPYDQLFEMDAINGDFAQTDAVVVIGANDVMNPAARNAEGTPIYGMPVLNVDDAPEVIICNFDLKPGYAGVDNPLYTRATGVFLKLGDAKESLAEIMKEMDIA | not soluble
ATPALRFVAVGDWGGVPNAPFHTAREMANAKEIARTVQILGADFILSLGDNFYFTGVQDINDKRFQETFEDVFSDRSLRKVPWYVLAGNHDHLGNVSAQIAYSKISKRWNFPSPFYRLHFKIPQTNVSVAIFMLDTVTLCGNSDDFLSQQPERPRDVKLARTQLSWLKKQLAAAREDYVLVAGHYPVWSIAEHGPTHCLVKQLRPLLATYGVTAYLCGHDHNLQYLQDENGVGYVLSGAGNFMDPSKRHQRKVPNGYLRFHYGTEDSLGGFAYVEISSKEMTVTYIEASGKSLFKTRLPRRARP | soluble
ATQGRLRRRPEGARVPSARRGRPRARWRAPQNNPEVDSIMAELKVEAPASVDWQKRCLTLETQLFRFRLQASKIRELLADKMQELEQRLLEAEQRAENAETQVGVMEEKVKLSNLKNVDSEGSLHRKYQELLKAIKGKDELISQLEAQLEKQKQMRAEEAKTVQEKAAKIKEWVTLKLAKLEMENQHLKSHNQRLVEQVGSLQDALEAIQIAPSRKLLVPPYGAAEQDSVPSEPGIQPMGQDSGSQAQGLKAAVLAPSPGALQSKDSVSEAASPLEDSSSSTVHSGETVEAKPLQPHLGRESPPHQPCMKLLTFRCSSASWGEGLVTAQRGMLPGTKTSAREGGPGSSLTLPKVRAPGTPRDSIQLAKRHHSQPQVGHGHFGRVVNIETEAFSALHPSGLPELESRARSREEPEKMEMEEPPPAGKNEERESPKALGAELEEVELGNKPPTPPLHQFSSWESRIYAVATSGMRLSDMSPRSNTACCASSPPALVSPGSFSGLVYKNVTVPVYTALKGRATQISNMPFMDESSGSDDDCSSQASFRISVPSSESRKTSGLGSPRAIKRGVSMSSLSSEGDYAIPPDACSLDSDYSEPEHKLQRTSSYSTDGLGLGGESLEKSGYLLKMGSQVKTWKRRWFVLRQGQIMYYKSPSDVIRKPQGQVDLNSRCQIVRGEGSQTFQLISEKKTYYLTADSPSLLEEWIRVLQSLLKVQATGPPALLRGGTKPTVKGWLTKVKHGHSKVVWCALVGKIFYYYRSHEDKRPLGCLPVRDAHIEEVDRSCDSDEDYEAGGTRRLLSSHCTLVIHPTEHSPTYLLIGTKHEKDTWLYHLTVAAGGSSAKVGTAYEQLIGKLMDGEGDPDSPLWRHPMLCYSKDGLYASLTTLPSEALQTEALKLFKSCQLFINVPVEAASVDYHVSLAQTALQVCLVHPELQSEIYCQLMKQTSCRPPQKYSLMQCWQLLALCAPLFLPQHHFLWYVKQQLQRHADPRSETGQYATYCQRAVERTLRTGEREARPSRMEVVSILLRNPFHHSLPFSIPVHFTNGTYHVVGFDGSSTVDEFLQRLNQEIGMRKPSHSGFALFTDDPSGRDLEHCLQGSVKICDAISKWEQAMKELHPGKSEGGTRVVKLMYKNRLYFRSQVKGETDRERLLLASQTSREIVAGRFPINKELALEMAALMAQVEYGDLEKPALPGPGGTSPAKAQHLLQQVLDRFHPRRYRHGAPAEQLRHLADMLTTKWATLQGCSPPECIRIYLTVARKWPFFGAKLFAAQPAQLSSKENALVWIAVNEDGVSILDHNTMQVHITYPYSSVTTFGGCRDDFMLVIRSIPDKSSGKSHIEKLIFRMAAPKIAEATFIMASYMNHCTTTVNPPTNPPGACQLWELDGRQFFSSVSCATKGPTLL | soluble
ATRRRSLSCYVWIATFGMRYTHEFNKVIRDYVRGHASQIRKRLLPKALEVFASHRIAGDCVVVATGAPPELVREILALVADQQEVVPVIGSSIVPRLGAIIVARHCHHEEKMRMLREQGYGDVAVAYSDSTADLPLLMAAKVPVVVNPKPKREKLFRRVLQP | not soluble
ATTGTQGYTVVKNDWKKAVKQLQDGLKDNSIGKITVSFNDGVVGEVAPKSANKKADRDAAAEKLYNLVNTQLDKLGDGDYVDFSVDYNLENKIITNQADAEAIVTKLNSLNEKTLIDIATKDTFGMVSKTQDSEGKNVAATKALKVKDVATFGLKSGGSEDTGYVVEMKAGAVEDKYGKVGDSTAGIAINLPSTGLEYAGKGTTIDFNKTLKVDVTGGSTPSAVAVSGFVTKDDTDLAKSGTINVRVINAKEESIDIDASSYHMSLEHHHHHH | soluble
